The target in the assay is phosphorylated JAK2 (UniProt O60674). As to the kind of experiment: co-immunoprecipitation (IP p-JAK2, IB c-Mpl) with densitometry. The following applies: HEK293T cells; 20 ng/mL TPO stimulation; parent: est. 1.3; read off a plot.
Chain of UniProt O60674 (O60674 whole entry, canonical isoform): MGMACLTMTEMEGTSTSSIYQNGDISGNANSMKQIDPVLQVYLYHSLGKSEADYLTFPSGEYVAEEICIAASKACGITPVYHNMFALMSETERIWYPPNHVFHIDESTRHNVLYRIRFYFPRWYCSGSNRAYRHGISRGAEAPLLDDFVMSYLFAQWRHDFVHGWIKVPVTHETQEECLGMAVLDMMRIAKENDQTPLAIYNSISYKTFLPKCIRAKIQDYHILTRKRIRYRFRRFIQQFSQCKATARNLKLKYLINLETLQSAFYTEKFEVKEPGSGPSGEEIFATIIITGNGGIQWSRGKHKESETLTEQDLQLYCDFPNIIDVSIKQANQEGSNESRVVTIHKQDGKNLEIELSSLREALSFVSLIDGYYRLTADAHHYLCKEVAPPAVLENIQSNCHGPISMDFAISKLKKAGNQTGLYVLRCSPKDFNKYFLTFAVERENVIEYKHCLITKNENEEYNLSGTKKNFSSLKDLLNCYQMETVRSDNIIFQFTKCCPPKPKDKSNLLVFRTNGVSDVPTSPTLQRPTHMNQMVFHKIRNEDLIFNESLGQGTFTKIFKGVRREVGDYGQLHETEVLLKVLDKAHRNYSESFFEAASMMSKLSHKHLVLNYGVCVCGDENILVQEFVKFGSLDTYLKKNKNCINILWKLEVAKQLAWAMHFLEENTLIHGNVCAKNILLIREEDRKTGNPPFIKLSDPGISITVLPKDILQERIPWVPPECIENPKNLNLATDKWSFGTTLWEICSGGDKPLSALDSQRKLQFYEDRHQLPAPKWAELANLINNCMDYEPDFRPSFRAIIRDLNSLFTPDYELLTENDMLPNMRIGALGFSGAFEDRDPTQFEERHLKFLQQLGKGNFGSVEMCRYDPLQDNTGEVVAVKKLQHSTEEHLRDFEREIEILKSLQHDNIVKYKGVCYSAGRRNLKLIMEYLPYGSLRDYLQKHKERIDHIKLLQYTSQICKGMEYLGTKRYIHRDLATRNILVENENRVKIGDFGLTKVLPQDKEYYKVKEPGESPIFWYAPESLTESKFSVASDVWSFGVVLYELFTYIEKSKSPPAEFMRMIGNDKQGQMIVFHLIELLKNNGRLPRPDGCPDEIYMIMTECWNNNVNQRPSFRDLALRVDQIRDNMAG
Regarding “c-Mpl-del (c-Mpl alternative splicing isoform with a 24 amino acid deletion in the extracellular region) Y602F”, the response came out at 0.44. Regarding “c-Mpl-del (c-Mpl alternative splicing isoform with a 24 amino acid deletion in the extracellular region) Y567F”, the response was determined as 0.54. On to “c-Mpl-del (c-Mpl alternative splicing isoform with a 24 amino acid deletion in the extracellular region) Y607F”, for which the response amounted to 0.18.
